Test results published in US20230287120A1 (ALLOGENE THERAPEUTICS, published 2023).

T1: Flag tagged recombinant DLL3 (Adipogen) (Homo sapiens (Human), UniProt Q9NYJ7 27-492)
T1 construct: Bought reagent; also called Flag-DLL3
T1 sequence: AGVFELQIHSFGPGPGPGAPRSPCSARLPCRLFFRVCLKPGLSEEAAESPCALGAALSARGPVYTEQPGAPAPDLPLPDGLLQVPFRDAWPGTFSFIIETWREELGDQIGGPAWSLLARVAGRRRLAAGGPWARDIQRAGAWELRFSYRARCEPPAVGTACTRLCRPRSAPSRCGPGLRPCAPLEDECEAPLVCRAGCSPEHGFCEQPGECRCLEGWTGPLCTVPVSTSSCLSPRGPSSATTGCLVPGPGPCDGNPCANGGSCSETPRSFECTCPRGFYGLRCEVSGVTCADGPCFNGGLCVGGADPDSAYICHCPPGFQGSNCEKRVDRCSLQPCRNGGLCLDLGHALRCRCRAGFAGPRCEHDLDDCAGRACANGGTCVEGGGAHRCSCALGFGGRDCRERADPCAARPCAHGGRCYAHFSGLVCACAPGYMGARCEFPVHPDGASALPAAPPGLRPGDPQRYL

B1: 11F4 (other)
CAR: QVHLQESGPGLVKPSETLSLTCTVSGGSISHYYWTWIRQPPGKGLEWIGYIYYSGITNFSPSLKSRVSISVDSSKNQFSLNLNSVTAADTAVYYCAGISLAGFYFDYWVQGTLVTVSSGGGGSGGGGSGGGGSGGGGSEIVLTQSPGTLSLSPGERATLSCRASQSVSRSYLAWYQQKPGQAPRLLIYGASSRATGVPDRFSGSGSGTDFTLTISRLEPEDFAVFYCQQYSISPLTFGGGTKVEIKTTTPAPRPPTPAPTIASQPLSLRPEACRPAAGGAVHTRGLDFACDIYIWAPLAGTCGVLLLSLVITKRGRKKLLYIFKQPFMRPVQTTQEEDGCSCRFPEEEEGGCELRVKFSRSADAPAYQQGQNQLYNELNLGRREEYDVLDKRRGRDPEMGGKPRRKNPQEGLYNELQKDKMAEAYSEIGMKGERRRGKGHDGLYQGLSTATKDTYDALHMQALPPR
notes: also called anti-DLL3 CAR with 11F4 scFv, on primary T cells
B2: 4E6 (other)
CAR: QVQLQESGPGLVKPSETLSLTCTVSSDSISSYYWSWIRQPPGKGLEWISYIYYSGISNYNPSLKSRVSISVDTSKNQFSLRLSSVTAADTAVYYCARISVAGFFFDNWGQGTLVTVSSGGGGSGGGGSGGGGSGGGGSEIMLTQSPDTLSLSPGERATLSCRASQSVSSSYLAWYQQKPGQAPRLLIYGASSRAAGVPDRFSGSGSGTDFTLTISRLAPEDFVVYYCQQYGISPLTFGGGTKVEIKTTTPAPRPPTPAPTIASQPLSLRPEACRPAAGGAVHTRGLDFACDIYIWAPLAGTCGVLLLSLVITKRGRKKLLYIFKQPFMRPVQTTQEEDGCSCRFPEEEEGGCELRVKFSRSADAPAYQQGQNQLYNELNLGRREEYDVLDKRRGRDPEMGGKPRRKNPQEGLYNELQKDKMAEAYSEIGMKGERRRGKGHDGLYQGLSTATKDTYDALHMQALPPR
notes: also called anti-DLL3 CAR with 4E6 scFv, on primary T cells
B3: 3G6 - L2 (other)
CAR: QVPLVQSGAEVKKPGSSVKVSCKASGGTFSTYSISWVRQAPGQGLEWMGGIIPIFGTTNYAQKFQGRVTITADKSTSTAYMELSSLRSEDTAVYYCARDGEGSYYYYYGMDVWGQGTTVTVSSGGGGSGGGGSGGGGSGGGGSQSVLTQPPSASGTPGQRVTISCSGSSSNIGSNYVYWYQQLPGTAPKLLIYSNNQRPSGVPDRFSGSKSGTSASLAISGLRSEDEADYYCAAWDDSLSGWVFGGGTKLTVLTTTPAPRPPTPAPTIASQPLSLRPEACRPAAGGAVHTRGLDFACDIYIWAPLAGTCGVLLLSLVITKRGRKKLLYIFKQPFMRPVQTTQEEDGCSCRFPEEEEGGCELRVKFSRSADAPAYQQGQNQLYNELNLGRREEYDVLDKRRGRDPEMGGKPRRKNPQEGLYNELQKDKMAEAYSEIGMKGERRRGKGHDGLYQGLSTATKDTYDALHMQALPPR
notes: also called anti-DLL3 CAR with 3G6-L2 scFv, on primary T cells
B4: 3F9-L (other)
CAR: QVQLQQSGPGLVKPSQTLSLACAISGDSVSSNSAIWNWIRQSPSRGLEWLGGTYYRSMWYNDYAVSVKSRITINPDTSKNQLSLQLNSVTPEDTAVYYCSRGGIVGVPDAFDIWGQGTMVTVSSGGGGSGGGGSGGGGSGGGGSQSVLTQPPSASGTPGQRVTISCSGSSSNIGSNTANWYQQLPGTAPRLLIYRNNQRPSGVPDRFSGSKSGTSASLAISGLQSEDEADYYCAAWDDSLNGYVFGTGTKVTVLTTTPAPRPPTPAPTIASQPLSLRPEACRPAAGGAVHTRGLDFACDIYIWAPLAGTCGVLLLSLVITKRGRKKLLYIFKQPFMRPVQTTQEEDGCSCRFPEEEEGGCELRVKFSRSADAPAYQQGQNQLYNELNLGRREEYDVLDKRRGRDPEMGGKPRRKNPQEGLYNELQKDKMAEAYSEIGMKGERRRGKGHDGLYQGLSTATKDTYDALHMQALPPR
notes: also called anti-DLL3 CAR with 3F9-L scFv, on primary T cells
B5: 3E10 (other)
CAR: QVQLQESGPGLVKPSETLSLTCNVSDGSISSYYWTWIRQPPGKGLDWIGYIFYSGTTNYNPSLKSRVTISLDTSKNQFSLKLTSMTAADTAVYYCARISEKSFYFDYWGQGTLVTVSSGGGGSGGGGSGGGGSGGGGSQSVLTQPPSASGTPGQRVTISCSGSSSNIGSNYVYWYQQLPGTAPKLLIYSNNQRPSGVPDRFSGSKSGTSASLAISGLRSEDEADYYCAPWDDSLSGRVFGGGTKLTVLTTTPAPRPPTPAPTIASQPLSLRPEACRPAAGGAVHTRGLDFACDIYIWAPLAGTCGVLLLSLVITKRGRKKLLYIFKQPFMRPVQTTQEEDGCSCRFPEEEEGGCELRVKFSRSADAPAYQQGQNQLYNELNLGRREEYDVLDKRRGRDPEMGGKPRRKNPQEGLYNELQKDKMAEAYSEIGMKGERRRGKGHDGLYQGLSTATKDTYDALHMQALPPR
notes: also called anti-DLL3 CAR with 3E10 scFv, on primary T cells
B6: 6F8 (other)
CAR: QVQLVQSGAEVKKPGSSVKVSCKASGGTFTNYCISWVRQAPGQGLEWMGGIIPIFGTTNYAQTFQGRVTITADKSTSTAYMELSSLRSEDTAVYYCARDNGDRYYYDMDVWGQGTTVTVSSGGGGSGGGGSGGGGSGGGGSQSVLTQPPSVSAAPGQKVTISCSGSSSNIGNNYVSWYQQLPGTAPKLLIYDNNKRPSGIPDRFSGSKSGTSATLGITGLQTGDEADYYCGTWDSSLSAVVFGGGTKLTVLTTTPAPRPPTPAPTIASQPLSLRPEACRPAAGGAVHTRGLDFACDIYIWAPLAGTCGVLLLSLVITKRGRKKLLYIFKQPFMRPVQTTQEEDGCSCRFPEEEEGGCELRVKFSRSADAPAYQQGQNQLYNELNLGRREEYDVLDKRRGRDPEMGGKPRRKNPQEGLYNELQKDKMAEAYSEIGMKGERRRGKGHDGLYQGLSTATKDTYDALHMQALPPR
notes: also called anti-DLL3 CAR with 6F8 scFv, on primary T cells
B7: 3G6 - L1 (other)
CAR: QVPLVQSGAEVKKPGSSVKVSCKASGGTFSTYSISWVRQAPGQGLEWMGGIIPIFGTTNYAQKFQGRVTITADKSTSTAYMELSSLRSEDTAVYYCARDGEGSYYYYYGMDVWGQGTTVTVSSGGGGSGGGGSGGGGSGGGGSQSVLTQPPSVSAAPGQKVTISCSGSSSNIGNNYVSWYQQLPGTAPKLLIYDNNKRPSGIPDRFFGSKFGTSATLGITGLQTGDEADYYCGTWDSSLSAVVFGGGTKLTVLTTTPAPRPPTPAPTIASQPLSLRPEACRPAAGGAVHTRGLDFACDIYIWAPLAGTCGVLLLSLVITKRGRKKLLYIFKQPFMRPVQTTQEEDGCSCRFPEEEEGGCELRVKFSRSADAPAYQQGQNQLYNELNLGRREEYDVLDKRRGRDPEMGGKPRRKNPQEGLYNELQKDKMAEAYSEIGMKGERRRGKGHDGLYQGLSTATKDTYDALHMQALPPR
notes: also called anti-DLL3 CAR with 3G6-L1 scFv, on primary T cells
B8: 10E12 (other)
CAR: QVQLQESGPGLVKPSETLSLTCTVSGVSISSYYWSWIRQPPGKGLEWIAYIYYSGNTNYSPSLKSRVTISVDTSKDQLSLKLSSVTAADTAVYYCTRGGSGTIDVFDIWGQGTMVAVSSGGGGSGGGGSGGGGSGGGGSQSVLTQPPSVSAAPGQKVTISCSGSSSNIGNNYVSWYQQLPGTAPKLLIYDNNKRPSGIPDRFSGSKSGTSATLGITGLQTGDEADYYCETWDSSLSAVVFGGGTKLTVLTTTPAPRPPTPAPTIASQPLSLRPEACRPAAGGAVHTRGLDFACDIYIWAPLAGTCGVLLLSLVITKRGRKKLLYIFKQPFMRPVQTTQEEDGCSCRFPEEEEGGCELRVKFSRSADAPAYQQGQNQLYNELNLGRREEYDVLDKRRGRDPEMGGKPRRKNPQEGLYNELQKDKMAEAYSEIGMKGERRRGKGHDGLYQGLSTATKDTYDALHMQALPPR
notes: also called anti-DLL3 CAR with 10E12 scFv, on primary T cells
B9: 4C6 (other)
CAR: QVQLQESGPGLVKPSETLSLTCTVSGDSISSYYWSWIRQPPGKGLEWIGYMYYSGITNYNPSLKSRVNISLDTSKNQFSLKLGSVTAADTAVYYCARLSVAGFYFDYWGQGTLVTVSSGGGGSGGGGSGGGGSGGGGSEIVLTQSPGTLSLSPGERATLSCRASQSVTRSYLAWYQQKPGQAPRLLIYGASSRATDIPDRFSGSGSGTDFTLTINRLEPEDFAVYYCQQYGTSPLTFGGGTKVEIKTTTPAPRPPTPAPTIASQPLSLRPEACRPAAGGAVHTRGLDFACDIYIWAPLAGTCGVLLLSLVITKRGRKKLLYIFKQPFMRPVQTTQEEDGCSCRFPEEEEGGCELRVKFSRSADAPAYQQGQNQLYNELNLGRREEYDVLDKRRGRDPEMGGKPRRKNPQEGLYNELQKDKMAEAYSEIGMKGERRRGKGHDGLYQGLSTATKDTYDALHMQALPPR
notes: also called anti-DLL3 CAR with 4C6 scFv, on primary T cells
B10: 3C3 (other)
CAR: QVQLVQSGAEVKRPGASVKVSCKASGYTFTSYYIHWVRQAPGQGLEWMGVIVPSGGSISYAQKFQGRVTMTRDTSTNIVYMELSSLRSEDTAVYYCARDRYYGDYYYGLDVWGQGTTVTVSSGGGGSGGGGSGGGGSGGGGSDIQMTQSPSSLSASVGDRVTITCRASQGINNFLAWFQQKPGKAPKSLIYAASSLQSGVPSKFSGSGSGTDFTLTIRSLQPEDFATYYCQHYNSYPITFGQGTRLEIKTTTPAPRPPTPAPTIASQPLSLRPEACRPAAGGAVHTRGLDFACDIYIWAPLAGTCGVLLLSLVITKRGRKKLLYIFKQPFMRPVQTTQEEDGCSCRFPEEEEGGCELRVKFSRSADAPAYQQGQNQLYNELNLGRREEYDVLDKRRGRDPEMGGKPRRKNPQEGLYNELQKDKMAEAYSEIGMKGERRRGKGHDGLYQGLSTATKDTYDALHMQALPPR
notes: also called anti-DLL3 CAR with 3C3 scFv, on primary T cells
B11: 2404.8E11 (other)
CAR: QIQLQQSGPGLVKPSQTLSLTCAISGDSVSSNSAVWNWIRQSPSRGLEWLGRTYYRSKWYNDYAVSVKSRITIKPDTAKNQFSLQLNSVTPEDTAVYYFTRGGIVGAPDAFDIWGQGTMVTVSSGGGGSGGGGSGGGGSGGGGSQSVLTQPPSASGTPGQRVTISCSGSSSNIGSDPINWYQQVPGTAPKLLIYSNNQRPSGVPDRFSGSKSGTSASLAISGLQSEDEADYYCAAWDDSLNGYVFGTGTKVTVLTTTPAPRPPTPAPTIASQPLSLRPEACRPAAGGAVHTRGLDFACDIYIWAPLAGTCGVLLLSLVITKRGRKKLLYIFKQPFMRPVQTTQEEDGCSCRFPEEEEGGCELRVKFSRSADAPAYQQGQNQLYNELNLGRREEYDVLDKRRGRDPEMGGKPRRKNPQEGLYNELQKDKMAEAYSEIGMKGERRRGKGHDGLYQGLSTATKDTYDALHMQALPPR
notes: also called anti-DLL3 CAR with 2404.8E11 scFv, on primary T cells

Target: T1, Flag tagged recombinant DLL3 (Adipogen)
Experiment: flow cytometry, percent of T cells that recognise recombinant DLL3, Donor 772
Description: (§1) To determine the percentage of T cells that were successfully transduced with DLL3 CAR, T cells were first incubated with 1 ug/ml Flag tagged recombinant DLL3 (Adipogen) in PBS+1% BSA for 20 minutes at 4 C.

| Transduction efficiency [%] | Binder |
| --- | --- |
| 0.43 | B1 |
| 24.8 | B2 |
| 16.9 | B3 |
| 13.8 | B4 |
| 0.43 | B5 |
| 26.7 | B6 |
| 14.2 | B7 |
| 0.98 | B8 |
| 25.2 | B9 |
| 0.14 | B10 |

Target: T1, Flag tagged recombinant DLL3 (Adipogen)
Experiment: flow cytometry, percent of T cells that recognise recombinant DLL3, Donor 503
Description: as §1

| Transduction efficiency [%] | Binder |
| --- | --- |
| 37.8 | B2 |
| 33.5 | B3 |
| 19.5 | B4 |
| 58.9 | B11 |
| 59.4 | B6 |
| 35 | B7 |
| 56.9 | B9 |
